Here are results for 10 molecules from patent US20110293610A1 (published 2011).

For assay [1], the target named is T1, TNF-alpha (human, UniProt P01375 77-233).
T1 construct: also called TNFα; TNF-α
Put plainly: phage ELISA.

In assay [2] the target is T2, Bovine serum albumin (bovine, UniProt P02769 25-607).
T2 construct: also called BSA
Put plainly: phage ELISA.

The target in assay [3] is T3, B Lymphocyte Stimulator, soluble form (human) (human, UniProt Q9Y275 134-285, biotinylated with NHS-biotin where used as biotinylated B Lymphocyte Stimulator).
T3 construct: Coated on plastic, captured on streptavidin plates, amine-coupled to a CM5 chip or free in solution, depending on the assay; also called BLyS; immobilized B Lymphocyte Stimulator
Put plainly: phage ELISA. In general terms: ELISA stands for enzyme-linked immunosorbent assay.

The target of assay [4] is T4, membrane-bound B Lymphocyte Stimulator on U937 plasma membrane preparations (human, UniProt Q9Y275 1-285).
T4 construct: Natural protein in plasma membrane fractions of the human cell line U937 coated on ELISA plates; also called U937 plasma membranes; U937 membranes
Put plainly: phage ELISA.

The target of assay [5] is T3, B Lymphocyte Stimulator, soluble form …. Description: phage display panning on soluble BLyS. The text has this: (§1) In a specific embodiment, antibodies of the present invention cross react with APRIL (SEQ ID NO:3239; GenBank Accession No. AF046888; J. Exp. Med. 188(6):1185-1190; PCT International Publication WO97/33902). […] These scFvs were isolated by panning a phage scFv library comprising VH and VL domains obtained from human bone marrow B cells (BM library). Phage from the BM phage library were first selected for binding to soluble B Lymphocyte Stimulator (amino acids 134-285 of SEQ ID NO:3228). A second round of selection for binding to the soluble form of APRIL (amino acids 105-250 of SEQ ID NO:3239) was then performed on the B Lymphocyte Stimulator binding phage selected in round one. A third round of selection for binding to the soluble form of APRIL (amino acids 105-250 of SEQ ID NO:3239) was then performed on the phage selected in round two. A final (fourth) round of selection for binding to the soluble form of B Lymphocyte Stimulator (amino acids 134-285 of SEQ ID NO:3228) was then performed on the phage selected in round three. Phage clones that bound B Lymphocyte Stimulator in the fourth round of selection were eluted with either 0.1M triethylamine (TEA) or with a TACI-Fc fusion protein (e.g., the extracellular domain of TACI (amino acids 31 to 159 of Genbank Accession No. AAC51790) fused to Fc).

The target of assay [6] is T5, APRIL, soluble form (Homo sapiens (Human), UniProt O75888 105-250).
T5 sequence: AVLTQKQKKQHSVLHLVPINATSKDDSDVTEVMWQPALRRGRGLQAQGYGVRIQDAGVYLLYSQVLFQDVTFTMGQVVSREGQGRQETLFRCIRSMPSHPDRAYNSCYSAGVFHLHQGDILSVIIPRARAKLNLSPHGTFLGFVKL
Description: phage display panning on soluble APRIL, rounds two and three.
From the text: as §1

The target of assay [7] is T6, TRAIL (human, UniProt P50591 114-281).
T6 construct: also called TNF-related apoptosis inducing ligand
T6 sequence (P50591 114-281 limits assumed): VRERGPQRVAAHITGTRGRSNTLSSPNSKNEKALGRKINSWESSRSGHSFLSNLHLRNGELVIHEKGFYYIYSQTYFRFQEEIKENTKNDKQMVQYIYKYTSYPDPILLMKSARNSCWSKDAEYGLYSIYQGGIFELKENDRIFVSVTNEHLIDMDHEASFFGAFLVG
Put plainly: phage ELISA.

In assay [8] the target is T7, Fas ligand (human, UniProt P48023 134-281, limits assumed).
T7 sequence (looked up): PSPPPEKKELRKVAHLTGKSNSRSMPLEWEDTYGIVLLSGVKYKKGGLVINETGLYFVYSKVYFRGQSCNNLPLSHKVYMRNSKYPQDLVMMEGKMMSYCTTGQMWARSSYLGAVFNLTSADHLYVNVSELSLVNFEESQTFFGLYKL
Put plainly: phage ELISA.

Assay [9] concerns the target T3, B Lymphocyte Stimulator, soluble form …. Description: phage competition ELISA.
Assay [10] has as its target T8, B Lymphocyte Stimulator, soluble form (human, UniProt Q9Y275 134-285).
T8 construct: also called BLyS; Neutrokine-alpha
Description: BIAcore, IgG1 captured on low-density Protein A, BLyS flowed over; mean ± SD. On the procedure: Briefly, antibodies were captured on low-density Protein A surfaces and B Lymphocyte Stimulator was passed over at various flow rates. The binding of B Lymphocyte Stimulator to immobilized antibody was detected by changes in […] that were proportional to the amount of bound B Lymphocyte Stimulator. Binding values were calculated using software provided by the manufacturer.
In general terms: SPR reads the build-up and loss of mass on a sensor chip optically.

The target in assay [11] is LIGHT (human, UniProt O43557 74-240, limits assumed). Description: phage ELISA.
Sequence of LIGHT (O43557 74-240 limits assumed): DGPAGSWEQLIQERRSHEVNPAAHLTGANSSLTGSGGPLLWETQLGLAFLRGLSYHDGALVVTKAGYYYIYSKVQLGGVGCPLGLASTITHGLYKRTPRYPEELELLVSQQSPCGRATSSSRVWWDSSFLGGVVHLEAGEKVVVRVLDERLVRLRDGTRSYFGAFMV
Assay [12] deals with T9, TNF-beta (human, UniProt P01374 35-205).
T9 construct: also called TNFβ; Tumour Necrosis Factor-beta
T9 sequence (looked up): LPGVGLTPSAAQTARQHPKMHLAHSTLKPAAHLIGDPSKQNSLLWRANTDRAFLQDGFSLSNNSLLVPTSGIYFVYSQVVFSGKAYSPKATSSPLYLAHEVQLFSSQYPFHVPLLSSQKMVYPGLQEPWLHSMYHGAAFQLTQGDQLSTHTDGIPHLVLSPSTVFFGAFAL
Put plainly: phage ELISA.

T1 sequence (P01375 77-233 limits assumed): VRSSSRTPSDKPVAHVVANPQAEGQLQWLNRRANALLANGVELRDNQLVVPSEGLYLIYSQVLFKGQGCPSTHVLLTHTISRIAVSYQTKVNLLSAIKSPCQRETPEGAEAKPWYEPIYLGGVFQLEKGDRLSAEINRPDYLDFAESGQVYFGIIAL
T2 sequence (P02769 25-607 limits assumed): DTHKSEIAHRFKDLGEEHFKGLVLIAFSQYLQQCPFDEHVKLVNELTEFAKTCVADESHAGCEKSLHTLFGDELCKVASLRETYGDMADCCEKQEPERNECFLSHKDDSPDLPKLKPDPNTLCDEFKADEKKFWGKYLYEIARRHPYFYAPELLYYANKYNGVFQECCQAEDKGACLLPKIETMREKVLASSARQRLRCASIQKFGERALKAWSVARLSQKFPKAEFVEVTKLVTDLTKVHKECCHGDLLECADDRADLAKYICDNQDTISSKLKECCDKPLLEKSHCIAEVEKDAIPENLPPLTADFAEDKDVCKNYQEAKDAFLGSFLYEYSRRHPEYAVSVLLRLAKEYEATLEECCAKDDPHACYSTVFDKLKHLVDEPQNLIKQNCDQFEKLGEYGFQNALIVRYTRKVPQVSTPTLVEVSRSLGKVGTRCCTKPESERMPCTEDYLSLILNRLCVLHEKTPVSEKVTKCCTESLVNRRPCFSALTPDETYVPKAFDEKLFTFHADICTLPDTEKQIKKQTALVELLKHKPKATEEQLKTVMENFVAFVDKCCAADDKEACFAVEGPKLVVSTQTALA

B1: I008D05 (scFv)
scFv: GVQLVQSGAEVKKPGSSVKISCKASGVTFNDYAFSWVRQAPGQGLEWVGGIIPKFGKAKYAQKFQGRLTISGDKSTSTAYMELRSLTSDDTAVYYCARATYDPLTGYSFDGFDIWGQGTMVTVSSGGGGSGGGGSGGGGSQSVLTQPASVSGSPGQSITISCTGTSSDVGGYNYVSWYQQHPGKAPKLMIYEGSKRPSGVSNRFSGSKSGNPASLTISGLQAEDEADYYCSSYTTRSTRVFGGGTKLTVLG
notes: also called 1008D05
Regarding B1, the binding result in assay [1] is “no binding”; in assay [2] it was “no binding”; in [3] it was “binds”; in assay [4], “binds”.

B2: I006E07 (scFv)
scFv: QVQLQQSGAEEKKPGASVKVSCKASGYTFTSYAMHWVRQAPGQRLEWMGWINAGNGNTKYSQKFQGRVAITRDTSASTAYMELSSLRSEDTAVYYCARADYDILTGYSPLTYGMDVWGRGTLVTVSSGGGGSGGGGSGGGGSDIQMTQSPSTLSASIGDRVTITCRASEGIYHWLAWYQQKPGKAPKLLIYKASSLASGAPSRFSGSGSGTDFTLTISSLQPDDFATYYCQQYSNYPLTFGGGTKLEIKR
B2: the binding result is “no binding” in [1], “no binding” in assay [2], “binds” in assay [3] and “binds” in assay [4].

B3: BAB2065 (scFv)
scFv: GVQLVQSGAEVKKPGASVKVSCKASGYTFTKYTMHWVRQAPGQGPEWMGWINGGSGDTKYSRKFQGRVTITKDTSASAAYMELSSLGSEDTALYYCARATYDPLTGYSFDGFDIWGQGTMVTVSSGGGGSGGGGSGGGGSSELTQPASVSGSPGQSITISCTGTSSDVGGYNYVSWYQQHPGKAPKLMIYEGSKRPSGVSNRFSGSKSGNTASLTISGLQAEDEADYYCSSYTTRSTRVFGGGTKLTVLG
For B3, the binding result in assay [5] and in assay [6] was “binds” each time.

B4: BAB2016 (scFv)
scFv: EVQLVQSGGGLVQPGGSLRLSCAASGFTFSSYWMSWVRQAPGKGLEWVANIKQDGSGKYYVDSVKGRFTISRDNAKNSLYLQMNSLRAEDTAVYYCARDPRYDILTGYLYGMDVWGQGTMVTVSSGGGGSGGGGSGGGGSQSVLTQPASVSGSPGQSITISCTGTSSDVGGYNYVSWYQQHPGKAPKLMIYEGSKRPSGVSNRFSGSKSGNTASLTISGLQAEDEADYYCSSYTTRSTRVFGGGTKLTVLG
For the molecule B4, the binding result in [5] and in assay [6] was “binds” throughout.

B5: I016F04 (scFv)
scFv: QVQLQQSGSELKKPGASVKVSCKVSGYSLTKMSMHWVRQSPGEGLEWVGGIDPETRQPVYAQKFQGRVTITKDTSASAAYMELSSLGSEDTALYYCARATYDPLTGYSFDGFDIWGQGTLVTVSSGGGGSGGGGSGGGGSQSVLTQPASVSGSPGQSITISCTGTSSDVGGYNYVSWYQQHPGKAPKLMIYEGSKRPSGVSNRFSGSKSGNTASLTISGLQAEDEADYYCSSYTTRSTRVFGGGTKLTVLG
B5: the binding result was “no binding” in assay [7]; “no binding” in assay [1]; “no binding” in assay [2]; “no binding” in assay [8]; “binds” in assay [4]; “binds” in [9].

B6: BAB2034 (scFv)
scFv: QVQLQQSGPGLVKPSQTLSLTCAISGDSVSSNSAAWNWIRQSPSRGLEWLGRTYYRSKWYNDYAVSVKSRITINPDTSKNQFSLQLNSVTPEDTAVYYCAREGAHYDILTGHNYYHYGMDVWGQGTMVTVSSGGGGSGGGGSGGGGSQSVLTQPPSASGSPGQSVTISCTGTSSDVGGYNYVSWYQQHPGKAPKFMIYDVSKRPSGVSNRFSGSKSGNTASLTISGVQAEDEADYYCSSYTSASTVIFGGGTKLTVLG
As for B6, the binding result in assay [5] and in assay [6] was “binds” in each case.

B7: BAB2087 (scFv)
scFv: QVQLVQSGAEVKKPGASVKVSCKASGFAFSSYDINWVRQAPGQGLEWMGWMNPKSGKTGYAQNFQGRVTMTRNTSISTAYMELSSLKSEDTAVYFCARGFTGYDILTDYYSVDYFDSWGRGTLVTVSSGGGGSGGGGSGGGGSALPVLTQPPSVSVAPGQTARITCGGSSIGRKSVHWYQQSPGQAPVLVVYDDSDRPSGIPERFSGSNSGDTATLTISRVEVGDEADYYCQVWDINSDHVVFGGGTKLTVLG
As for B7, the binding result in assay [5] and in [6] was “binds” in each case.

B8: I116A01 IgG1 (antibody, V domains shown)
VH: QVQLQQSGAEVKKPGSSVRVSCKASGGTFNNNAINWVRQAPGQGLEWMGGIIPMFGTAKYSQNFQGRVAITADESTGTASMELSSLRSEDTAVYYCARSRDLLLFPHHALSPWGRGTMVTVSS
VL: SSELTQDPAVSVALGQTVRVTCQGDSLRSYYASWYQQKPGQAPVLVIYGKNNRPSGIPDRFSGSSSGNTASLTITGAQAEDEADYYCSSRDSSGNHWVFGGGTELTVLG
The term Kd denotes the constant that tells how readily two partners part at equilibrium. Read a high Kd as lower affinity. In general, koff refers to the first-order rate constant of dissociation. The kon is the rate constant with which the complex forms. Consider B8, for which, in assay [10], the Kd was found to be 0.267 nM, the koff worked out at 0.000332 s⁻¹ and the kon stood at 1.26e+06 M⁻¹ s⁻¹.

B9: I006D08 IgG1 (antibody, V domains shown)
VH: QVQLQQSGAEVKKPGSSVRVSCKASGGTFNNNAINWVRQAPGQGLEWMGGIIPMFGTAKYSQNFQGRVAITADESTSTASMELSSLRSEDTAVYYCARSRDLLLFPHYGMDVWGRGTMVTVSS
VL: SSELTQDPAVSVALGQTVRVTCQGDSLRSYYASWYQQKPGQAPVLVIYGKNNRPSGIPDRFSGSSSGNTASLTITGAQAEDEADYYCNSRDSSGNHWVFGGGTELTVLG
As to B9, in assay [10], the Kd was found to be 0.498 nM, the koff is 0.00058 s⁻¹ and the kon was 1.43e+06 M⁻¹ s⁻¹.

B10: I075A02 (scFv)
scFv: QVQLVQSGAEVKKPGSSVKVSCRASGGSFNHAISWVRQAPGRGLEWMGGILPMYGTANYAQKFQGRVTITADKLTNTVYMDLSRLRYEDTAVYYCARELGLSIVGATTGALDMWGRGTLVTVSSGGGGSGGGGSGGGGSAQSVVTQPPSASGTPGQRVTVSCSGGRSNIGSNTVSWYQQLPGTAPKLLIYSNDERPSGVPDRFSGSNSGTSASLAISGLQSEDEADYYCAAWDDSLNGVAFGGGTKLTVLG
In the case of B10, the binding result is given as “no binding” in assay [7]; “no binding” in assay [1]; “no binding” in assay [2]; “binds” in assay [3]; “no binding” in assay [11]; “no binding” in assay [12].
